Measured values taken from patent US20250059282A1.

Legend:
Mouse PD-L2-Fc (mouse) = Mouse PD-L2-Fc (mouse) (UniProt Q9WUL5); assay: ForteBio, IgG, avid
[1] = target: Cyno PD-L1-Fc (cynomolgus) (UniProt G7PSE7); assay: ForteBio, IgG, avid
Mouse PD-L1-Fc (mouse) = Mouse PD-L1-Fc (mouse) (UniProt Q9EP73); assay: ForteBio, IgG, avid
[2] = target: Cyno PD-L2-Fc (cynomolgus); assay: ForteBio, IgG, avid
Human PD-L2-HIS (human) = Human PD-L2-HIS (human) (UniProt Q9BQ51); assay: ForteBio, IgG, monovalent
Human PD-L2-HIS (human), sequence (Q9BQ51 20-220): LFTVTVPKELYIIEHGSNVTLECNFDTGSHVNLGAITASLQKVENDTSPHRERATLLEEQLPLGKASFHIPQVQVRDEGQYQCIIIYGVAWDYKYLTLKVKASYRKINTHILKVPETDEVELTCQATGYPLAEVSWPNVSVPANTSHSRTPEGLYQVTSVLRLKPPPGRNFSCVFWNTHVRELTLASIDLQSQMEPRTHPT

Human PD-L1-HIS (human) = Human PD-L1-HIS (human) (UniProt Q9NZQ7); assay: ForteBio, IgG, monovalent
Human PD-L1-HIS (human), sequence (Q9NZQ7 19-238 limits assumed): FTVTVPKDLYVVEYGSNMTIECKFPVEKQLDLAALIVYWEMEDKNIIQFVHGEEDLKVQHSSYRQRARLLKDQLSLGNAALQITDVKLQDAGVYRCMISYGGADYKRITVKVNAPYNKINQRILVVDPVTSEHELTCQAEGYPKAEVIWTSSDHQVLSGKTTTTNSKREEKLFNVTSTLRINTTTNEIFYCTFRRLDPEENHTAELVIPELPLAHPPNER

Cyno PD-L2-Fc (cynomolgus), sequence (chain, as listed by the source): as the sequence (Q9BQ51 20-220) above, with V19A, P62S, S67L, V139I, P166H, T178A, H179Q, M194I counted along it
Mouse PD-L2-Fc (mouse), sequence (Q9WUL5 20-219 limits assumed): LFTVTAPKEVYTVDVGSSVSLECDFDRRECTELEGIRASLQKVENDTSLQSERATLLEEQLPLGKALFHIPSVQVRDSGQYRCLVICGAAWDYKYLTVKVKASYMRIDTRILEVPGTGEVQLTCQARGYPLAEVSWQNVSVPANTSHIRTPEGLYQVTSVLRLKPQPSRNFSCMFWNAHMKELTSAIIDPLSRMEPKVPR
Mouse PD-L1-Fc (mouse), sequence (Q9EP73 19-239 limits assumed): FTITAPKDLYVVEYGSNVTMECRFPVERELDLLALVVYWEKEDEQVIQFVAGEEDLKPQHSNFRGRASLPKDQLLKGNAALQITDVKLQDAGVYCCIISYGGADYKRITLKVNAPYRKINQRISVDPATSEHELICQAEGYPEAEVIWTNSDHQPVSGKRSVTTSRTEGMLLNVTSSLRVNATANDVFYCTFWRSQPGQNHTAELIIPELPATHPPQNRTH
Cyno PD-L1-Fc (cynomolgus), sequence (G7PSE7 entry or part of it limits assumed): as the sequence (Q9NZQ7 19-238 limits assumed) above, with A33T, A34S, S62N, R68Q, Q82R, F173L, T185A, T192I, H215L counted along it

B1: BiPDL3-54 (antibody, part only; not given: light chain variable domain, V domains shown, part only)
VH: QVQLQQWGAGLLKPSETLSLTCAVYGGSLSGYPWSWIRQPPGKGLEWIGETDVSGWTDYNPSLKSRVTISVDTSKNQFSLKLSSVTAADTAVYYCARDGRRMGTPSFDIWGQGTMVTVSS
- Kd (Mouse PD-L2-Fc (mouse)): 0.694 nM
- Kd [1]: 0.442 nM
- Kd (Mouse PD-L1-Fc (mouse)): 2.97 nM
- Kd [2]: 0.621 nM
- Kd (Human PD-L2-HIS (human)): 2.2 nM
- Kd (Human PD-L1-HIS (human)): 15.5 nM
